One may read the Kd as the equilibrium constant for the complex coming apart. High values mean lower affinity, low ones higher affinity. The koff is a measure of how fast the partners let go of each other.

Results on six molecules are retold here after article PMC5551578 (The Journal of Experimental Medicine, 2017).

To fix the notation:
B1: TT-Ab9 (antibody, V domains shown)
VH: EVQLVESGGSLVQPGGSLRLSCVGTGFTFNTYWMSWVRQAPGKGLEWVANIKQDGREKHYVDSVMGRFTVSRDNAMNALYLQVNSLRVEDTAVYYCARGMTAWSLGGYQYDYWGQGTQVTVSS
VL: DIQMTQSPSSLSASVGDTVTITCRASQGIRSDLGWYQQRPGKAPKLLVYTASTLQTGVPSRFSGSGFGTDFTLTISSLQPEDFATYYCLQNYNYPRTFGQGTKVEIK
notes: IgG1
B2: TT-Ab4 (antibody, V domains shown)
VH: EVQLVQSGAEMKKPGSSVKVSCRMSGGKFNNYAMSWVRQAPGQGLEWVGGIIPVLGTANYAQKFQDRVAITADKSTNTAYMELSSLRSDDTAVYYCARVWGTVVTQGPSQVQYNHYGMDVWGQGTTVTVSS
VL: DIQLTQSPSSLSASVGDRVTITCRATQSISSSLNWYQHKPGKAPNLLISAASNLQSGVPSRFSGSGSRTDFTLTITNLQPEDFATYYCQQSYTTPLTFGGGTKVEIK
notes: IgG1
B3: TT-Ab3 (antibody, V domains shown)
VH: EVQLVQSGAEVKKPGSSVKVSCKVSGGAFNSYAISWVRQAPGQGLEWMGGIIPILRTANYTEKFQGRVTINADKSTNTAYMELSKLRSEDTAVYYCARVWGTTVTKGPSQIKYYYYGMDVWGQGTTVTVSS
VL: DIQMTQSPSSLSASVGDRVTISCRASQSISNYLNWYHQKPGKAPKLLIYAASSLQSGVPSRFSGSGSGTDFTLTISSLQPEDFATYYCQQSYSTPLTFGGGTKVEIK
notes: IgG1
B4: TT-Ab7 (antibody, V domains shown)
VH: EVQLVESGGGWVQPGGSLRLSCAASGFTFNSFGSYGMSWVRQAPGKGLEWVSHISASGAATYYADSVKGRFTISRDNSKNTLLLQMNDLRGEDTATYYCARSVQQYLGLLGYWGQGTLVTVSS
VL: QSVLTQSPSASASLGATVKLTCTLSSGHTNYAIAWHQLQPQKAPRYLLKISNDGSHKRGDGIPDRFSGSSSGAERYLTISSLQSEDEAEYYCQTWGAGMGMFGGGTKLTVL
notes: IgG1
B5: TT-Ab12 (antibody, V domains shown)
VH: QVQLQESGPGLVKPSETLSLTCNVSGASISRYYWAWIRQPPGKGLEWIGYIYDSGTTTYNTSLKSRVTISRDTSKNQFSLNMMSVTAADTAVYYCARARYYYDSTGYFYGWLDPWGQGRLVTVSF
VL: DIQMTQSPSTLSASVGDRVTITCRASQSINIWLAWYQQRPGKAPDLLIYKASTLQSGVPSRFSGSGSGTEFTLTISSVQPDDFATYYCQQYKSYSCSFGQGTKVEIN
notes: IgG1
B6: TT-Ab10 (antibody, V domains shown)
VH: EVQLVESGGGLVQPGGSLRVSCGASGFTFANFWMSWVRQAPGKGLEWVANINQDGNERKYVDSVKGRFTISRDNDKNSLYLQMNSLRAEDTAVYFCAREYGSYWRTYYFDDWGQGTLVTVSS
VL: DIVMTQSPATLSLSPGERATLSCRASQSVSNYLAWYQQKPGQAPRLLIYDASNRASGTPARFSGSGFGTDFTLTISSLDPEDFAVYYCQQGSNWLTFGGGTKVEIK
notes: IgG1

T1 sequence (P04958 whole entry): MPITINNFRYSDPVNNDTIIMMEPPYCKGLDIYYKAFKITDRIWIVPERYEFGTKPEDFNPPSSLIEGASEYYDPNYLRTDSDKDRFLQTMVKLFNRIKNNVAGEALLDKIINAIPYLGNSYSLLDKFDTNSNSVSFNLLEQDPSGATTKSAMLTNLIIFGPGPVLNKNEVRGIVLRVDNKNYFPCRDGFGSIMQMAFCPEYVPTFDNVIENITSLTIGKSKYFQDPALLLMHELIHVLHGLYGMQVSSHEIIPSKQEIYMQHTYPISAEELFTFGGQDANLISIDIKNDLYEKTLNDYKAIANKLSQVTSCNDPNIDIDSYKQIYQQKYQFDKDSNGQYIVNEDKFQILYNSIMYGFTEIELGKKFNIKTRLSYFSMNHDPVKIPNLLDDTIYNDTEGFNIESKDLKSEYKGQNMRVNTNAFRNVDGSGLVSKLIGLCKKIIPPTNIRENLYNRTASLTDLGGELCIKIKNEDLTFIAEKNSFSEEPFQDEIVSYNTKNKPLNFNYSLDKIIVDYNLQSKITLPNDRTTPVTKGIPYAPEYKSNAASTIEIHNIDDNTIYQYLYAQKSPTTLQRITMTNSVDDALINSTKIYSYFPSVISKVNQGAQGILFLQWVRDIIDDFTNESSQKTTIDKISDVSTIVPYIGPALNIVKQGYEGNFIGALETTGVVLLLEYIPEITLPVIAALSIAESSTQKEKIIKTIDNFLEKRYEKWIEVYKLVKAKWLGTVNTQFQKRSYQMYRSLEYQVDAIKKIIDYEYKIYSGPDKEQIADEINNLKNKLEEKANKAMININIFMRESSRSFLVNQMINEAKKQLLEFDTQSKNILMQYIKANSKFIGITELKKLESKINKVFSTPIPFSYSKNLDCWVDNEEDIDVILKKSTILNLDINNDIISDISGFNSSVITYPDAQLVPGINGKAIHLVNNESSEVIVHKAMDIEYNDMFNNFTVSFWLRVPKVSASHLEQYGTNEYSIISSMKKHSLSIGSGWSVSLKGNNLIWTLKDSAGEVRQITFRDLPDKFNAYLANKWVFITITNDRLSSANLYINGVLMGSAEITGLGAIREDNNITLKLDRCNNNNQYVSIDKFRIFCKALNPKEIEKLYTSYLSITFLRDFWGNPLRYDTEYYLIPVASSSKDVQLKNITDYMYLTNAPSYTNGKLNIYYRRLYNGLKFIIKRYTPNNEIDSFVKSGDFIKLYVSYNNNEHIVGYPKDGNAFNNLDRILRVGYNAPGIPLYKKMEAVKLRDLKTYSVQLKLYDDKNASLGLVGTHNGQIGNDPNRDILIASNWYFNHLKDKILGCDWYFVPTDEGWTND

The assay addresses T1, tetanus toxoid (Clostridium tetani, production strain …, UniProt P04958, biotin (biotinylated antigen)).
T1 construct: also called TT
As to the kind of experiment: BLI. (BLI is a label-free optical method that tracks binding on a fibre tip over time.)
As to B1, the dissociation constant Kd stood at 6.64 nM and the off-rate (koff) worked out at 0.000919 s⁻¹.
B2 gave a Kd of 0.0137 nM and a koff of 2.27e-06 s⁻¹.
For B3, in that order: 1.61 nM and 0.00013 s⁻¹.
Take B4: the dissociation constant Kd was 0.0185 nM and the koff stood at 3.46e-06 s⁻¹.
For B5, in that order: 1.95 nM and 0.000307 s⁻¹.
B6 had a Kd of 1.59 nM and a koff of 0.000243 s⁻¹.
